T1: PUF4 RNA-binding domain (Saccharomyces cerevisiae, UniProt P25339 537-888)
T1 sequence: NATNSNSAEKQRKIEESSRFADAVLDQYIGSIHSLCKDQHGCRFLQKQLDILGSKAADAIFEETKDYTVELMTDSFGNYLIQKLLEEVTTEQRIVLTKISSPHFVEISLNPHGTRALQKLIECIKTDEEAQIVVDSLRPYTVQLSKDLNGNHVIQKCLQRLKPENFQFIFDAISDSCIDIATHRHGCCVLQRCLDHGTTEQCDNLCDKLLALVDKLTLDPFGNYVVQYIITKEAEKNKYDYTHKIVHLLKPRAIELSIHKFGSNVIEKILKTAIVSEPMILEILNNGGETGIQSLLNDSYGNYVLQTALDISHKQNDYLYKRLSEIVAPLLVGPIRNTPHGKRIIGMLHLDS


These binders were tested against T1, PUF4 RNA-binding domain (assay: Mg; RNA-MaP; 20 mM Na-HEPES pH 7.4, 30 mM KOAc, 0.75 mM MgCl2, 0.1% Tween-20, 5% glycerol, 0.1 mg/mL BSA, 2 mM DTT; 25 C; 0.0125-409.6 nM protein). Conditions: tags: N-His6-TEV cleaved; C-SNAP kept, Cy3B-labelled; label: tethered on chip by stalled RNA polymerase.

Binder	Kd [nM]
UCUCUUACACACUAUUACUUCUCUU (ssRNA) [Id_ii_S1_P4E.4_K4.3_C4.2_[C-2A]_[T-1C]_H4.3_A4.1_F4.1_T4.2_[G10C]]	> 2300
UCUCUUAUACACUAUUAAUUCUCUU (ssRNA) [Id_ii_S1_P4E.4_K4.3_C4.2_[C-2A]_H4.3_A4.1_F4.1_T4.2_[G10A]]	35.2
UCUCUUCCACACUAUUAUAUCUCUU (ssRNA) [Id_ii_S1_P4E.4_K4.3_C4.2_[T-1C]_H4.3_A4.1_F4.1_T4.2_[G10T]_[T11A]]	> 2300
UCUCUUUUACACUAUUAACUCUCUU (ssRNA) [Id_ii_S1_P4E.4_K4.3_C4.2_[C-2T]_H4.3_A4.1_F4.1_T4.2_[G10A]_[T11C]]	977
UCUCUUAUACACUAUUACUUCUCUU (ssRNA) [Id_ii_S1_P4E.4_K4.3_C4.2_[C-2A]_H4.3_A4.1_F4.1_T4.2_[G10C]]	31.1
UCUCUUCGACACUAUUAUCUCUCUU (ssRNA) [Id_ii_S1_P4E.4_K4.3_C4.2_[T-1G]_H4.3_A4.1_F4.1_T4.2_[G10T]_[T11C]]	> 2300
UCUCUUCGACACUAUUACUUCUCUU (ssRNA) [Id_ii_S1_P4E.4_K4.3_C4.2_[T-1G]_H4.3_A4.1_F4.1_T4.2_[G10C]]	> 2300
UCUCUUCCACACUAUUAGCUCUCUU (ssRNA) [Id_ii_S1_P4E.4_K4.3_C4.2_[T-1C]_H4.3_A4.1_F4.1_T4.2_[T11C]]	> 2300
UCUCUUUUACACUAUUAGCUCUCUU (ssRNA) [Id_ii_S1_P4E.4_K4.3_C4.2_[C-2T]_H4.3_A4.1_F4.1_T4.2_[T11C]]	1600
UCUCUUAAACACUAUUAAAUCUCUU (ssRNA) [Id_ii_S1_P4E.4_K4.3_C4.2_[C-2A]_[T-1A]_H4.3_A4.1_F4.1_T4.2_[G10A]_[T11A]]	> 2300
UCUCUUUUACACUAUUAGUUCUCUU (ssRNA) [Id_ii_S1_P4E.4_K4.3_C4.2_[C-2T]_H4.3_A4.1_F4.1_T4.2]	1370
UCUCUUUGUAGUUUAUCUCUU (ssRNA) [Ic_S1_P4E.1_K4.1_C4.1_H4.1_A4.1_[T5G]_[A6T]_F4.1_T4.1]	18.5
UCUCUUAUACACUAUUAGCUCUCUU (ssRNA) [Id_ii_S1_P4E.4_K4.3_C4.2_[C-2A]_H4.3_A4.1_F4.1_T4.2_[T11C]]	49.5
UCUCUUUGUACCUUAUCUCUU (ssRNA) [Ib_S1_P4E.1_K4.1_C4.1_H4.1_A4.1_[T5C]_[A6C]_F4.1_T4.1]	3.61
UCUCUUAUACACUAUUAUAUCUCUU (ssRNA) [Id_ii_S1_P4E.4_K4.3_C4.2_[C-2A]_H4.3_A4.1_F4.1_T4.2_[G10T]_[T11A]]	31.1
UCUCUUUUACACUAUUAUAUCUCUU (ssRNA) [Id_ii_S1_P4E.4_K4.3_C4.2_[C-2T]_H4.3_A4.1_F4.1_T4.2_[G10T]_[T11A]]	944
UCUCUUCCACACUAUUAGUUCUCUU (ssRNA) [Id_ii_S1_P4E.4_K4.3_C4.2_[T-1C]_H4.3_A4.1_F4.1_T4.2]	> 2300
UCUCUUUUACACUAUUACGUCUCUU (ssRNA) [Id_ii_S1_P4E.4_K4.3_C4.2_[C-2T]_H4.3_A4.1_F4.1_T4.2_[G10C]_[T11G]]	1680
UCUCUUCCACACUAUUACGUCUCUU (ssRNA) [Id_ii_S1_P4E.4_K4.3_C4.2_[T-1C]_H4.3_A4.1_F4.1_T4.2_[G10C]_[T11G]]	> 2300

Binder	Kd [nM]
UCUCUUAUACACUAUUAACUCUCUU (ssRNA) [Id_ii_S1_P4E.4_K4.3_C4.2_[C-2A]_H4.3_A4.1_F4.1_T4.2_[G10A]_[T11C]]	37.5
UCUCUUAGACACUAUUACAUCUCUU (ssRNA) [Id_ii_S1_P4E.4_K4.3_C4.2_[C-2A]_[T-1G]_H4.3_A4.1_F4.1_T4.2_[G10C]_[T11A]]	> 2300
UCUCUUAUACACUAUUAUCUCUCUU (ssRNA) [Id_ii_S1_P4E.4_K4.3_C4.2_[C-2A]_H4.3_A4.1_F4.1_T4.2_[G10T]_[T11C]]	21.8
UCUCUUCCACACUAUUAGAUCUCUU (ssRNA) [Id_ii_S1_P4E.4_K4.3_C4.2_[T-1C]_H4.3_A4.1_F4.1_T4.2_[T11A]]	> 2300
UCUCUUAGACACUAUUAACUCUCUU (ssRNA) [Id_ii_S1_P4E.4_K4.3_C4.2_[C-2A]_[T-1G]_H4.3_A4.1_F4.1_T4.2_[G10A]_[T11C]]	> 2300
UCUCUUCCACACUAUUAAAUCUCUU (ssRNA) [Id_ii_S1_P4E.4_K4.3_C4.2_[T-1C]_H4.3_A4.1_F4.1_T4.2_[G10A]_[T11A]]	> 2300
UCUCUUAGACACUAUUAAUUCUCUU (ssRNA) [Id_ii_S1_P4E.4_K4.3_C4.2_[C-2A]_[T-1G]_H4.3_A4.1_F4.1_T4.2_[G10A]]	> 2300
UCUCUUACACACUAUUACCUCUCUU (ssRNA) [Id_ii_S1_P4E.4_K4.3_C4.2_[C-2A]_[T-1C]_H4.3_A4.1_F4.1_T4.2_[G10C]_[T11C]]	> 2300
UCUCUUUGUAACUUAUCUCUU (ssRNA) [Ib_S1_P4E.1_K4.1_C4.1_H4.1_A4.1_[T5A]_[A6C]_F4.1_T4.1]	8.33
UCUCUUCGACACUAUUACCUCUCUU (ssRNA) [Id_ii_S1_P4E.4_K4.3_C4.2_[T-1G]_H4.3_A4.1_F4.1_T4.2_[G10C]_[T11C]]	> 2300
UCUCUUUUACACUAUUAUCUCUCUU (ssRNA) [Id_ii_S1_P4E.4_K4.3_C4.2_[C-2T]_H4.3_A4.1_F4.1_T4.2_[G10T]_[T11C]]	1280
UCUCUUAAACACUAUUAGCUCUCUU (ssRNA) [Id_ii_S1_P4E.4_K4.3_C4.2_[C-2A]_[T-1A]_H4.3_A4.1_F4.1_T4.2_[T11C]]	> 2300
UCUCUUAUACACUAUUACCUCUCUU (ssRNA) [Id_ii_S1_P4E.4_K4.3_C4.2_[C-2A]_H4.3_A4.1_F4.1_T4.2_[G10C]_[T11C]]	26.4
UCUCUUUUACACUAUUACCUCUCUU (ssRNA) [Id_ii_S1_P4E.4_K4.3_C4.2_[C-2T]_H4.3_A4.1_F4.1_T4.2_[G10C]_[T11C]]	1320
UCUCUUAUACACUAUUAAAUCUCUU (ssRNA) [Id_ii_S1_P4E.4_K4.3_C4.2_[C-2A]_H4.3_A4.1_F4.1_T4.2_[G10A]_[T11A]]	24.2
UCUCUUUUACACUAUUACUUCUCUU (ssRNA) [Id_ii_S1_P4E.4_K4.3_C4.2_[C-2T]_H4.3_A4.1_F4.1_T4.2_[G10C]]	1160
UCUCUUACACACUAUUAGCUCUCUU (ssRNA) [Id_ii_S1_P4E.4_K4.3_C4.2_[C-2A]_[T-1C]_H4.3_A4.1_F4.1_T4.2_[T11C]]	> 2300
UCUCUUAAACACUAUUACCUCUCUU (ssRNA) [Id_ii_S1_P4E.4_K4.3_C4.2_[C-2A]_[T-1A]_H4.3_A4.1_F4.1_T4.2_[G10C]_[T11C]]	> 2300
UCUCUUCCACACUAUUAACUCUCUU (ssRNA) [Id_ii_S1_P4E.4_K4.3_C4.2_[T-1C]_H4.3_A4.1_F4.1_T4.2_[G10A]_[T11C]]	> 2300

Binder	Kd [nM]
UCUCUUCGACACUAUUACAUCUCUU (ssRNA) [Id_ii_S1_P4E.4_K4.3_C4.2_[T-1G]_H4.3_A4.1_F4.1_T4.2_[G10C]_[T11A]]	> 2300
UCUCUUAAACACUAUUAUAUCUCUU (ssRNA) [Id_ii_S1_P4E.4_K4.3_C4.2_[C-2A]_[T-1A]_H4.3_A4.1_F4.1_T4.2_[G10T]_[T11A]]	> 2300
UCUCUUAUACACUAUUACAUCUCUU (ssRNA) [Id_ii_S1_P4E.4_K4.3_C4.2_[C-2A]_H4.3_A4.1_F4.1_T4.2_[G10C]_[T11A]]	29.6
UCUCUUUUACACUAUUAAUUCUCUU (ssRNA) [Id_ii_S1_P4E.4_K4.3_C4.2_[C-2T]_H4.3_A4.1_F4.1_T4.2_[G10A]]	1120
UCUCUUUGUACGUUAUCUCUU (ssRNA) [Ic_S1_P4E.1_K4.1_C4.1_H4.1_A4.1_[T5C]_[A6G]_F4.1_T4.1]	4.05
UCUCUUCCACACUAUUACUUCUCUU (ssRNA) [Id_ii_S1_P4E.4_K4.3_C4.2_[T-1C]_H4.3_A4.1_F4.1_T4.2_[G10C]]	> 2300
UCUCUUCCACACUAUUACCUCUCUU (ssRNA) [Id_ii_S1_P4E.4_K4.3_C4.2_[T-1C]_H4.3_A4.1_F4.1_T4.2_[G10C]_[T11C]]	> 2300
UCUCUUUAACACUAUUAGUUCUCUU (ssRNA) [Id_ii_S1_P4E.4_K4.3_C4.2_[C-2T]_[T-1A]_H4.3_A4.1_F4.1_T4.2]	> 2300
UCUCUUCCACACUAUUACAUCUCUU (ssRNA) [Id_ii_S1_P4E.4_K4.3_C4.2_[T-1C]_H4.3_A4.1_F4.1_T4.2_[G10C]_[T11A]]	> 2300
UCUCUUCGACACUAUUAACUCUCUU (ssRNA) [Id_ii_S1_P4E.4_K4.3_C4.2_[T-1G]_H4.3_A4.1_F4.1_T4.2_[G10A]_[T11C]]	> 2300
UCUCUUUGUACUUUAUCUCUU (ssRNA) [Ib_S1_P4E.1_K4.1_C4.1_H4.1_A4.1_[T5C]_[A6T]_F4.1_T4.1]	2.73
UCUCUUAAACACUAUUAUCUCUCUU (ssRNA) [Id_ii_S1_P4E.4_K4.3_C4.2_[C-2A]_[T-1A]_H4.3_A4.1_F4.1_T4.2_[G10T]_[T11C]]	> 2300
UCUCUUAAACACUAUUAUUUCUCUU (ssRNA) [Id_ii_S1_P4E.4_K4.3_C4.2_[C-2A]_[T-1A]_H4.3_A4.1_F4.1_T4.2_[G10T]]	> 2300
UCUCUUACACACUAUUACGUCUCUU (ssRNA) [Id_ii_S1_P4E.4_K4.3_C4.2_[C-2A]_[T-1C]_H4.3_A4.1_F4.1_T4.2_[G10C]_[T11G]]	> 2300
UCUCUUAUACACUAUUACGUCUCUU (ssRNA) [Id_ii_S1_P4E.4_K4.3_C4.2_[C-2A]_H4.3_A4.1_F4.1_T4.2_[G10C]_[T11G]]	32.1
UCUCUUAUACACUAUUAUUUCUCUU (ssRNA) [Id_ii_S1_P4E.4_K4.3_C4.2_[C-2A]_H4.3_A4.1_F4.1_T4.2_[G10T]]	35.2
UCUCUUAUACACUAUUAGUUCUCUU (ssRNA) [Id_ii_S1_P4E.4_K4.3_C4.2_[C-2A]_H4.3_A4.1_F4.1_T4.2]	42.8
UCUCUUACACACUAUUAACUCUCUU (ssRNA) [Id_ii_S1_P4E.4_K4.3_C4.2_[C-2A]_[T-1C]_H4.3_A4.1_F4.1_T4.2_[G10A]_[T11C]]	> 2300
UCUCUUUUACACUAUUAUUUCUCUU (ssRNA) [Id_ii_S1_P4E.4_K4.3_C4.2_[C-2T]_H4.3_A4.1_F4.1_T4.2_[G10T]]	1130

Source: paper PMC9352680, “A comprehensive thermodynamic model for RNA binding by the Saccharomyces cerevisiae Pumilio protein PUF4”
